According to paper PMC7503162:

Columns and labels:
[1] = target: Low-density lipoprotein receptor-related protein 1 (LRP1), purified from human placenta (human (purified from human placenta)) (UniProt Q07954); test: SPR
[2] = target: Recombinant human LRP1 cluster III Fc chimera protein (human); test: SPR
[3] = target: Recombinant human LRP1 cluster II Fc chimera protein (human); test: SPR
[4] = target: Recombinant human LRP1 cluster IV Fc chimera protein (human); test: SPR
LRP1 (Homo sapiens) = LRP1 (Homo sapiens) (UniProt Q07954); conditions: cited from earlier work
LRP1 (Homo sapiens), sequence (Q07954 20-4544): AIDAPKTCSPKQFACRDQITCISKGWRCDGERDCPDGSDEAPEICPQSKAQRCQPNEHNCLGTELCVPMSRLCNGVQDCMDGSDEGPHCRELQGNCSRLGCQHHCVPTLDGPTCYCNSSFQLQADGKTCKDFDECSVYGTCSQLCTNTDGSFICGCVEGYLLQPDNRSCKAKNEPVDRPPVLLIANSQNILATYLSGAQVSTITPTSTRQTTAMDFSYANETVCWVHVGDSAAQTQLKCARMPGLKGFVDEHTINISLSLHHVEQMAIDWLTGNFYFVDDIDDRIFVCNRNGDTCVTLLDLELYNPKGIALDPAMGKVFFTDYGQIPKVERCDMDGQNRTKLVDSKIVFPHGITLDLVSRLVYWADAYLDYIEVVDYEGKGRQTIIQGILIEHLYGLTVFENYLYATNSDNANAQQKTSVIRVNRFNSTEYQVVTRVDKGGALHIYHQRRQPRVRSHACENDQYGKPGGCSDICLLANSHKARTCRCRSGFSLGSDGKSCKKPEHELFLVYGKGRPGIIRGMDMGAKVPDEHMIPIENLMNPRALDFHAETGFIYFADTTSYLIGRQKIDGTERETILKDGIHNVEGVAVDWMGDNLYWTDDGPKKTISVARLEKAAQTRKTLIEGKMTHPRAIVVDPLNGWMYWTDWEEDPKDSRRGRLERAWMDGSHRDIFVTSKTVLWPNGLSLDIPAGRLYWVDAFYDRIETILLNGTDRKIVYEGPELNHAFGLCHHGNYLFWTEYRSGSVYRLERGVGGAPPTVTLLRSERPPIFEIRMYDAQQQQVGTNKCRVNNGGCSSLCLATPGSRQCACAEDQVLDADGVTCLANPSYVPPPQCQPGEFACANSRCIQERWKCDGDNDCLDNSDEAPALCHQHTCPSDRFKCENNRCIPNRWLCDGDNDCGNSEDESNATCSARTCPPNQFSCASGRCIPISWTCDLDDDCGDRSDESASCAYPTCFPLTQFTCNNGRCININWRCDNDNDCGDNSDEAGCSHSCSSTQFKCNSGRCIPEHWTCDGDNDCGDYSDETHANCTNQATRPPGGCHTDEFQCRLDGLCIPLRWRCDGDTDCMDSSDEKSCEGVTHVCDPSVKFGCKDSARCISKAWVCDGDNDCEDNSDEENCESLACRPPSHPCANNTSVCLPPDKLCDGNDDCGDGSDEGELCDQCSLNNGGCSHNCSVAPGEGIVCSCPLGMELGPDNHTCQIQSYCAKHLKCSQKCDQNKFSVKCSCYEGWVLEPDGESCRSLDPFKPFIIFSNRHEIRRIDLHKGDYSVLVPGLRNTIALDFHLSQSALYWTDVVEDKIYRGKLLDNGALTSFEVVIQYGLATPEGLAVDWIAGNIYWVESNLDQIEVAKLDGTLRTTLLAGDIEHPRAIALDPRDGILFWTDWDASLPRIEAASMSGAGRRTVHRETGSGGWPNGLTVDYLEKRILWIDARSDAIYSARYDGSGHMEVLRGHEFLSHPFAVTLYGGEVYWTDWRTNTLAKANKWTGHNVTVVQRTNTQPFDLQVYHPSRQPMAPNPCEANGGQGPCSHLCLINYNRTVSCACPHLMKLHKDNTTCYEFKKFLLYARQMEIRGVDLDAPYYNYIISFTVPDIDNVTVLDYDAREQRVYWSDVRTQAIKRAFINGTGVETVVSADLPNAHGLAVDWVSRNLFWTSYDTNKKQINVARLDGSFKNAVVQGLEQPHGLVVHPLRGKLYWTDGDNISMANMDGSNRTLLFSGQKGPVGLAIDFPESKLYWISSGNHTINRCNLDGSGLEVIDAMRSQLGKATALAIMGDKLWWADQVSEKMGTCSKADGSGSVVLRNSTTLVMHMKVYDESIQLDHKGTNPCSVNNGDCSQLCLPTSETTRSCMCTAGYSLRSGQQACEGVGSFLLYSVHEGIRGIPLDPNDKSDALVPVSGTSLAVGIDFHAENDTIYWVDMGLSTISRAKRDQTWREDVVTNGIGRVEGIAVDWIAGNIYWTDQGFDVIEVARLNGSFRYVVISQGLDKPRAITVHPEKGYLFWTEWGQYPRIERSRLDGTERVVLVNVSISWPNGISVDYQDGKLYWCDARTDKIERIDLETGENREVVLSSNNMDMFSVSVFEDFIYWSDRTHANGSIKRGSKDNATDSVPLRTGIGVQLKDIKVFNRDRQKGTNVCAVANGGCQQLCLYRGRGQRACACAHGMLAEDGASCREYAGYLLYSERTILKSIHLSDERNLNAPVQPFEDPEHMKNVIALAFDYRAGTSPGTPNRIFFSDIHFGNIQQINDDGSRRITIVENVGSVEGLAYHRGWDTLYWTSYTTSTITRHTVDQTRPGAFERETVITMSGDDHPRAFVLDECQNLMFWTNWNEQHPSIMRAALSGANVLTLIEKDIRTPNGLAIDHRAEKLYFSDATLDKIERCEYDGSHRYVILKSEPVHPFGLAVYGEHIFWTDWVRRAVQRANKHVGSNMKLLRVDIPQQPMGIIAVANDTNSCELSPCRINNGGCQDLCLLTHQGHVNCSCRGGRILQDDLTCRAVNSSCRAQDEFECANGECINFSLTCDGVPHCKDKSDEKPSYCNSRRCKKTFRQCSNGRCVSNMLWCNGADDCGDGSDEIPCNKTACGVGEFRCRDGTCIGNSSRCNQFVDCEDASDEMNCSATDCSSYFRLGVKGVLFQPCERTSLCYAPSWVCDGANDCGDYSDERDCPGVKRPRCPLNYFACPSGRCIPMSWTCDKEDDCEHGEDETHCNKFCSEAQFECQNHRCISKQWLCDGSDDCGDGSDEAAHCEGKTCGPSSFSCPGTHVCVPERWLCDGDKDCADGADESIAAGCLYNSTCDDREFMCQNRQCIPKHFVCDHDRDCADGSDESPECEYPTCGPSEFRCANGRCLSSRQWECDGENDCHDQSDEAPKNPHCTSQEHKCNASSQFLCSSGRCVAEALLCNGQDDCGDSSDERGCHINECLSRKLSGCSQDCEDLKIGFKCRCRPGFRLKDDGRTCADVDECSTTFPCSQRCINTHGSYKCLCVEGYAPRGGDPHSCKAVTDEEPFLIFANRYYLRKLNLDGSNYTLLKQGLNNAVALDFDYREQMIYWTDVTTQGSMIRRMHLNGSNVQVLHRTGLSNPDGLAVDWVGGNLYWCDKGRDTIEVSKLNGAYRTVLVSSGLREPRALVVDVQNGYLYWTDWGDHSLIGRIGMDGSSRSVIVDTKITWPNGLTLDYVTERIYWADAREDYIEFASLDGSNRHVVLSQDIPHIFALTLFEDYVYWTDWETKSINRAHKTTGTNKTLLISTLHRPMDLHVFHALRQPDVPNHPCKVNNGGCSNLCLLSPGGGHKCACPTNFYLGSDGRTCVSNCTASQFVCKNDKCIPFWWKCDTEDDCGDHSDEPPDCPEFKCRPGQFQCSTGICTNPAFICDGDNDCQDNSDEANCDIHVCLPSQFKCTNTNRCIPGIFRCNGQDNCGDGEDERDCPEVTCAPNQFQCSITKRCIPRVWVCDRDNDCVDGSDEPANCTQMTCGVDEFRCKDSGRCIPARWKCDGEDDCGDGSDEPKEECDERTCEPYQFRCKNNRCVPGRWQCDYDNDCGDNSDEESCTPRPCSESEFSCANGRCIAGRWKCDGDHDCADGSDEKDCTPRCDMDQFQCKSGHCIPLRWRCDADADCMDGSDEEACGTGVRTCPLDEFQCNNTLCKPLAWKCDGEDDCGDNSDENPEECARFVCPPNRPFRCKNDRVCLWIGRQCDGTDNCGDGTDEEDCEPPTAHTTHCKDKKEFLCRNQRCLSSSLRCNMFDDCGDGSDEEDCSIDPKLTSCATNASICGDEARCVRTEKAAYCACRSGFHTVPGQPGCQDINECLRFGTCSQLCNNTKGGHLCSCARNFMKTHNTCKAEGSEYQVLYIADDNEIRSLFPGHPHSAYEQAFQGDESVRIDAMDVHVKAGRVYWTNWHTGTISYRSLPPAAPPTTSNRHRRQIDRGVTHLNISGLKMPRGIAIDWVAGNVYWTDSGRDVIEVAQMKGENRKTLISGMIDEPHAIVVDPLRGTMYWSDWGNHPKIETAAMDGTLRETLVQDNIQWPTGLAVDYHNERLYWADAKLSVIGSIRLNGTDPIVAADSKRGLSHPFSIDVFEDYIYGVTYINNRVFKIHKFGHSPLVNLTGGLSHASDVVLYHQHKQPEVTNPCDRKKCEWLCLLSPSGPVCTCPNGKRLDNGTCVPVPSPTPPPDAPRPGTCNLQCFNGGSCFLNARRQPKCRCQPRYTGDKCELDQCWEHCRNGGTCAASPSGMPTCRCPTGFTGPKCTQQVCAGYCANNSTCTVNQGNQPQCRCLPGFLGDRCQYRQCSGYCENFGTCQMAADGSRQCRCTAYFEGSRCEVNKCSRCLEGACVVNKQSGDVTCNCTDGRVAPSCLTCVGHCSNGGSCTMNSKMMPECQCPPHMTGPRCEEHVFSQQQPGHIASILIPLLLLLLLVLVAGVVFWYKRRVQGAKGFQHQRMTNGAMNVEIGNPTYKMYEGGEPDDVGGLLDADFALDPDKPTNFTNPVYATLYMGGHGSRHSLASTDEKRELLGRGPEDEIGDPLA

Tissue inhibitor of metalloproteases 1 (TIMP-1), sequence (P01033 24-207): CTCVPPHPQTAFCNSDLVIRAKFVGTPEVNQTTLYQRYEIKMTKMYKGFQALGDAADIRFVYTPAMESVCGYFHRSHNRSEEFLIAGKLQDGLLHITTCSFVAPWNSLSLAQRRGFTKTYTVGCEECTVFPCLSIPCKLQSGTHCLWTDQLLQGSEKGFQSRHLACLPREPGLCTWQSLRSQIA
Low-density lipoprotein receptor-related protein 1 (LRP1), purified from human placenta (human (purified from human placenta)), sequence (Q07954 20-4544): as the sequence (Q07954 20-4544) above

Substance	ka2 (bivalent model, second step) [1] [s⁻¹]	kd1 (bivalent model, first step) [1] [s⁻¹]	kd2 (bivalent model, second step) [1] [s⁻¹]	Kd [2] [µM]	Kd [3] [µM]	Kd [4] [µM]	also measured
Active MMP-1 (enzyme)	0.0084	0.017	0.0015	–	–	–	Kd [1]: 0.025 µM
Human His-tagged proMMP-1 (from UniProt P03956 20-469) (enzyme)	–	–	–	0.034	0.169	0.358	–
MMP-1/TIMP-3 complex (from UniProt P03956)	–	–	–	–	–	–	Kd (LRP1 (Homo sapiens)): 0.005 µM

Now from value to substance, other results behind:

ka2 (bivalent model, second step) [1] [s⁻¹]	kd1 (bivalent model, first step) [1] [s⁻¹]	kd2 (bivalent model, second step) [1] [s⁻¹]	Kd [2] [µM]	Kd [3] [µM]	Kd [4] [µM]	Substance	also measured
–	–	–	0.039	0.129	0.391	Tissue inhibitor of metalloproteases 1 (TIMP-1) (from UniProt P01033 24-207) (natural protein)	–
0.012	0.026	2.7e-05	0.012	0.027	0.032	MMP-1/TIMP-1 complex (from UniProt P01033 24-207)	ka1 (bivalent model, first step) [2]: 200000 M⁻¹ s⁻¹; ka2 (bivalent model, second step) [2]: 0.019 s⁻¹; kd1 (bivalent model, first step) [2]: 0.079 s⁻¹; kd2 (bivalent model, second step) [2]: 0.00062 s⁻¹; ka1 (bivalent model, first step) [3]: 120000 M⁻¹ s⁻¹; ka2 (bivalent model, second step) [3]: 0.02 s⁻¹; kd1 (bivalent model, first step) [3]: 0.077 s⁻¹; kd2 (bivalent model, second step) [3]: 0.00085 s⁻¹; ka1 (bivalent model, first step) [1]: 93000 M⁻¹ s⁻¹; ka1 (bivalent model, first step) [4]: 99000 M⁻¹ s⁻¹; ka2 (bivalent model, second step) [4]: 0.02 s⁻¹; kd1 (bivalent model, first step) [4]: 0.064 s⁻¹; kd2 (bivalent model, second step) [4]: 0.001 s⁻¹
